The values that follow come from article PMC9902482, “Isoform- and ligand-specific modulation of the adhesion GPCR ADGRL3/Latrophilin3 by a synthetic binder” (Nature Communications, 2023).

The target in test [1] is T1, full-length TEN2 expressed on HEK293T cells (UniProt Q9NT68 1-2774).
T1 construct: teneurin-2 (TEN2), full length; Co-transfected with dsRed in the cell aggregation assay; also called FL TEN2; teneurin; source: HEK293T, transfected, on the cell surface
Briefly: flow cytometry on cells; biotinylated ADGRL3 Lec domain titrated on HEK293T cells expressing full-length TEN2, detected with DyLight 650 neutravidin. The following applies: one partner purified. A general note: Flow cytometry measures light scatter and fluorescence of single cells or particles in a stream.

For test [2], the target named is T2, full-length ADGRL3 expressed on HEK293T cells (human, UniProt Q9HAR2). Briefly: cell-based or functional assay.
T2 sequence (Q9HAR2 20-1447): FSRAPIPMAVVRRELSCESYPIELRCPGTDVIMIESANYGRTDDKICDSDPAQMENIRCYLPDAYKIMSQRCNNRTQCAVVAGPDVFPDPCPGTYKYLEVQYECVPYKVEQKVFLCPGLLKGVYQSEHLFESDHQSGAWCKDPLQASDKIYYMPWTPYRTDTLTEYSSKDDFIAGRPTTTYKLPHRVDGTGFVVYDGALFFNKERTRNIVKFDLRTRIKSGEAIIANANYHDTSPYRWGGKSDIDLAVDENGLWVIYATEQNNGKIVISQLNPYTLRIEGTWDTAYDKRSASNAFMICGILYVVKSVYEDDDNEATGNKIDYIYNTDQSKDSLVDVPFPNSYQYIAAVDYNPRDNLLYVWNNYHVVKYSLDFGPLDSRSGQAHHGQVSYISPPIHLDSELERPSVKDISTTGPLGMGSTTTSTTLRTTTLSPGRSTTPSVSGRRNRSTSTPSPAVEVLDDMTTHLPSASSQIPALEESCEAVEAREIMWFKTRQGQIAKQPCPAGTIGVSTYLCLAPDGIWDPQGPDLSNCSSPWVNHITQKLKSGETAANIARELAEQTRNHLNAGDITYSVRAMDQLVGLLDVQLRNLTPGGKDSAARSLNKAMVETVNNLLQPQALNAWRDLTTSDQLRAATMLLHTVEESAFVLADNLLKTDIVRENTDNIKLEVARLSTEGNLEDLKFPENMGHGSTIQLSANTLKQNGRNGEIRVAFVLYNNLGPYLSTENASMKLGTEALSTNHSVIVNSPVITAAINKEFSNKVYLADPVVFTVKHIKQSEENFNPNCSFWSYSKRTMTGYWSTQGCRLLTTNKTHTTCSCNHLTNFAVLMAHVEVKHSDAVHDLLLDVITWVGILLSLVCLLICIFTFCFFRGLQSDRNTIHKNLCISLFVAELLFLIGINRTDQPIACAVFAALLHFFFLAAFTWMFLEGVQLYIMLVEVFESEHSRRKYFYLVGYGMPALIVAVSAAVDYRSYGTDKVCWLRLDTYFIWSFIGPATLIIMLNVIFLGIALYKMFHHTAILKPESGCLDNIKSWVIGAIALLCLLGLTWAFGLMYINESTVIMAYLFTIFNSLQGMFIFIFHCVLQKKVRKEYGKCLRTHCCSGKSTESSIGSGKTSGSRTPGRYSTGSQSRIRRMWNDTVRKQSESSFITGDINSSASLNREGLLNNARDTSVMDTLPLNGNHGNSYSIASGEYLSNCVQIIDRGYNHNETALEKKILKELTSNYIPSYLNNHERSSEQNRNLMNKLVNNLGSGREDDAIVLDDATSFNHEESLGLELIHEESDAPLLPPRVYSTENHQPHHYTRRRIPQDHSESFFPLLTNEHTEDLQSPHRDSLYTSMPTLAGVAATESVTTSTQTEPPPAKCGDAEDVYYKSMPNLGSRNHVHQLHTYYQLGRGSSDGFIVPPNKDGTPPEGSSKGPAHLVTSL
In test [3] the target is T3, Lec domain of ADGRL3 (human, UniProt Q9HAR2, biotin on the Avi-tag (BirA) in the flow cytometry experiments).
T3 construct: ADGRL3 (Latrophilin3), human, N-terminal Lectin (Lec) domain; also called ADGRL3Lec; lectin domain of ADGRL3; source: High Five insect cells (baculovirus), secreted, purified (Ni-NTA, SEC)
Put plainly: flow cytometry on cells; competition: 5 µM ADGRL3 Lec domain pre-bound to TEN2 on HEK293T cells, increasing concentrations of LK30; row of LK30 with the Lec domain. The note with it: both partners purified.

The target in test [4] is T3, Lec domain of ADGRL3. Put plainly: SPR; targets immobilised via His-tag on NTA sensor chip, sAB injected in 2-fold serial dilutions (25, 12.5, 6.25, 3.125 nM), RT, MASS-1 instrument, one-to-one Langmuir fit. The following applies: both partners purified. For orientation: SPR reads the build-up and loss of mass on a sensor chip optically.
The target of another test is T4, Lec domain of ADGRL1 (Rattus norvegicus, UniProt O88917).
T4 construct: ADGRL1 (Latrophilin1), rat, Lectin (Lec) domain; In the ELISA the target was held on a neutravidin plate, so it was probably biotinylated; also called Lec domain from ADGRL1; ADGRL1 lectin domain; source: baculovirus method (all proteins); not further stated for this fragment
Described as above. The following applies: both partners purified.

For test [5], the target named is T2, full-length ADGRL3 expressed on HEK293T …. Put plainly: flow cytometry on cells; HEK293T cells expressing full-length receptor, increasing concentrations of LK30, 30 min at 4 °C, detected with Alexa Fluor 647 anti-human F(ab')2; apparent affinity from MFI. The following applies: one partner purified.
The target in test [6] is T5, full-length ADGRL1 expressed on HEK293T cells (Rattus norvegicus (assumed for …, UniProt O88917)).
T5 construct: ADGRL1 (Latrophilin1), full length; also called Latrophilin1; source: HEK293T, transfected, on the cell surface; not shown: FLAG, N-terminal, kept
T5 sequence (O88917 25-1515): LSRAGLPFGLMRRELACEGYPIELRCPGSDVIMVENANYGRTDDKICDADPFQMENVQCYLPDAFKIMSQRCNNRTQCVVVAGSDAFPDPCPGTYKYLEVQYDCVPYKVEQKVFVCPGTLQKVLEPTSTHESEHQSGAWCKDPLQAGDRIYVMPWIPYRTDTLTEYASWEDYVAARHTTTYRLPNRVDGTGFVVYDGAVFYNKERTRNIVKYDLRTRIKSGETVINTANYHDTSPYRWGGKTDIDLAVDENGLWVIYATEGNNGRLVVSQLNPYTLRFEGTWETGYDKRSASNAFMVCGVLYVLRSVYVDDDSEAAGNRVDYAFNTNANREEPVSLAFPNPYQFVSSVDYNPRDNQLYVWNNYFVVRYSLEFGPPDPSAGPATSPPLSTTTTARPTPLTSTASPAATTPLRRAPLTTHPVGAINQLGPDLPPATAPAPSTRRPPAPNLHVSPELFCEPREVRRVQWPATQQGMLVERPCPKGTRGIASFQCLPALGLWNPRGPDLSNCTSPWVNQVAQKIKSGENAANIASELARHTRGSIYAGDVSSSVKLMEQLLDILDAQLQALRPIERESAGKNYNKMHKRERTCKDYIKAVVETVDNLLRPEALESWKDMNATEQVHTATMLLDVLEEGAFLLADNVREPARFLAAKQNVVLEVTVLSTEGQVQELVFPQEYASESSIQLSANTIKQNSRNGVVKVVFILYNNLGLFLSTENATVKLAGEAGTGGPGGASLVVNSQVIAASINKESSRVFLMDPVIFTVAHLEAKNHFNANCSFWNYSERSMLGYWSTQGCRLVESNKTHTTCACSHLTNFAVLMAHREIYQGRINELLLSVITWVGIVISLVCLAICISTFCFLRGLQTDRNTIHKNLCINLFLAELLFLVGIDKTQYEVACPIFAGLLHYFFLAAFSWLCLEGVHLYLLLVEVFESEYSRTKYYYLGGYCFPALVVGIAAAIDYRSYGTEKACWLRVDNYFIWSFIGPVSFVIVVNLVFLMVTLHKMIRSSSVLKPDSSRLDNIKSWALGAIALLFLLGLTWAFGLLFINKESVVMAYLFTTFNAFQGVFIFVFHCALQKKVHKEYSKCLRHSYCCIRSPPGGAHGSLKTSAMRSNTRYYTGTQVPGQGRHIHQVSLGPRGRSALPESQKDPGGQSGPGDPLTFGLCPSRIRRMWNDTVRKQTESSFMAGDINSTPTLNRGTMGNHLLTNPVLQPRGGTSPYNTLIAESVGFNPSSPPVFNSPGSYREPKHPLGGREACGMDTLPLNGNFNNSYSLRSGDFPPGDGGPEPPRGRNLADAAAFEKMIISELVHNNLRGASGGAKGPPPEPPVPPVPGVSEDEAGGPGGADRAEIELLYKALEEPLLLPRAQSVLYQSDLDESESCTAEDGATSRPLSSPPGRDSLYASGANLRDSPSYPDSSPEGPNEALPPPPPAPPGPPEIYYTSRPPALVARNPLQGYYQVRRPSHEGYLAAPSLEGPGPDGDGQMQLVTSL
The test is described as above. The note with it: one partner purified.

B1: Lec domain of ADGRL3 (domain or fragment, human)
chain: PIPMAVVRRELSCESYPIELRCPGTDVIMIESANYGRTDDKICDSDPAQMENIRCYLPDAYKIMSQRCNNRTQCAVVAGPDVFPDPCPGTYKYLEVQYECVPY
modifications: biotin on the Avi-tag (BirA) in the flow cytometry experiments
notes: ADGRL3 (Latrophilin3), human, N-terminal Lectin (Lec) domain; also called ADGRL3Lec; lectin domain of ADGRL3; source: High Five insect cells (baculovirus), secreted, purified (Ni-NTA, SEC)
B1 displayed a Kd in test [1] of 129 nM.

B2: synthetic antibody fragment (sAB) LK30 (Fab, V domains shown)
VH: EVQLVESGGGLVQPGGSLRLSCAASGFNIYYSSIHWVRQAPGKGLEWVAYISPYSGSTSYADSVKGRFTISADTSKNTAYLQMNSLRAEDTAVYYCARYKYGQGHMGAFDYWGQGTLVTVSS
VL: DIQMTQSPSSLSASVGDRVTITCRASQSVSSAVAWYQQKPGKAPKLLIYSASSLYSGVPSRFSGSRSGTDFTLTISSLQPEDFATYYCQQSNTELVTFGQGTKVEIK
notes: heavy chain (HC) of LK30 in the deposited structure PDB 8DJG; selected from synthetic phage library E on a humanized antibody Fab scaffold; light chain (LC) of LK30 in the deposited structure PDB 8DJG; Fab format (sAB) expressed from vector pRH2.2; source: E. coli BL21 (Gold), purified (protein L, Resource S ion exchange)
For the molecule B2, the “SRE-luciferase assay in HEK293T cells transfected with ADGRL3, 1 µM LK30: fold increase over basal activity” value in test [2] was approximately 2.5 fold. For the same molecule, the “SRE-luciferase assay in HEK293T cells transfected with ADGRL3, titration of LK30: EC50” value in test [2] amounted to 42 nM. This molecule also had an IC50 with Lec domain of ADGRL3 [3] of 193 nM. The Kd was 7 nM with Lec domain of ADGRL3 [4], 11 nM in the test with Lec domain of ADGRL1, 131 nM in test [5] and 147 nM in test [6].

In general, IC50 refers to the point on the concentration scale where inhibition reaches its midpoint.
